Reference: the Human Domainome abundance scans (Beltran et al. 2025)
± gives the uncertainty stated by the source.

assay: abundance fitness (aPCA) (normalised: wild type 0, dead -1); higher = more abundant; growth selection in yeast, the domain comes from the species named; settings: Homo sapiens

In order of falling abundance fitness:
1. Transcriptional activator Myb G197N, P10242  0.083 ± 0.16
2. Transcriptional activator Myb G197C, P10242  0.032 ± 0.098
3. Transcriptional activator Myb G197S, P10242  0.01 ± 0.071
4. Transcriptional activator Myb I154K, P10242  0.008 ± 0.095
5. Transcriptional activator Myb H184Y, P10242  -0.001 ± 0.052
6. Transcriptional activator Myb H159Y, P10242  -0.007 ± 0.12
7. Transcriptional activator Myb I154V, P10242  -0.03 ± 0.05
8. Transcriptional activator Myb H184R, P10242  -0.055 ± 0.062
9. Transcriptional activator Myb G197R, P10242  -0.087 ± 0.06
10. Transcriptional activator Myb G197D, P10242  -0.09 ± 0.13
11. Transcriptional activator Myb G197K, P10242  -0.124 ± 0.12
12. Transcriptional activator Myb G197P, P10242  -0.13 ± 0.1
13. Transcriptional activator Myb G197F, P10242  -0.148 ± 0.39
14. Transcriptional activator Myb G197T, P10242  -0.15 ± 0.092
15. Transcriptional activator Myb G175W, P10242  -0.168 ± 0.077
16. Transcriptional activator Myb I154T, P10242  -0.185 ± 0.077
17. Transcriptional activator Myb I154L, P10242  -0.187 ± 0.055
18. Transcriptional activator Myb I154A, P10242  -0.215 ± 0.054
19. Transcriptional activator Myb I154Q, P10242  -0.216 ± 0.11
20. Transcriptional activator Myb G197W, P10242  -0.229 ± 0.086
21. Transcriptional activator Myb I154R, P10242  -0.23 ± 0.046
22. Transcriptional activator Myb H159R, P10242  -0.243 ± 0.18
23. Transcriptional activator Myb G175Y, P10242  -0.256 ± 0.14
24. Transcriptional activator Myb G197Y, P10242  -0.265 ± 0.14
25. Transcriptional activator Myb I154M, P10242  -0.296 ± 0.085
26. Transcriptional activator Myb H184W, P10242  -0.298 ± 0.073
27. Transcriptional activator Myb I154C, P10242  -0.328 ± 0.093
28. Transcriptional activator Myb G197M, P10242  -0.334 ± 0.12
29. Transcriptional activator Myb G197L, P10242  -0.34 ± 0.083
30. Transcriptional activator Myb G197H, P10242  -0.395 ± 0.21
31. Transcriptional activator Myb H184F, P10242  -0.488 ± 0.075
32. Transcriptional activator Myb I154D, P10242  -0.5 ± 0.12
33. Transcriptional activator Myb I154E, P10242  -0.5 ± 0.076
34. Transcriptional activator Myb I154S, P10242  -0.527 ± 0.062
35. Transcriptional activator Myb I154H, P10242  -0.59 ± 0.12
36. Transcriptional activator Myb H184Q, P10242  -0.598 ± 0.08
37. Transcriptional activator Myb H184L, P10242  -0.623 ± 0.052
38. Transcriptional activator Myb H184M, P10242  -0.623 ± 0.061
39. Transcriptional activator Myb I154Y, P10242  -0.65 ± 0.13
40. Transcriptional activator Myb H184V, P10242  -0.684 ± 0.048
41. Transcriptional activator Myb G197I, P10242  -0.717 ± 0.24
42. Transcriptional activator Myb H184A, P10242  -0.732 ± 0.07
43. Transcriptional activator Myb I154G, P10242  -0.777 ± 0.057
44. Transcriptional activator Myb H184E, P10242  -0.783 ± 0.1
45. Transcriptional activator Myb H184C, P10242  -0.799 ± 0.084
46. Transcriptional activator Myb I154P, P10242  -0.807 ± 0.12
47. Transcriptional activator Myb H184P, P10242  -0.81 ± 0.098
48. Transcriptional activator Myb H184N, P10242  -0.817 ± 0.067
49. Transcriptional activator Myb H184D, P10242  -0.82 ± 0.077
50. Transcriptional activator Myb H184S, P10242  -0.854 ± 0.067
51. Transcriptional activator Myb H184G, P10242  -0.855 ± 0.054
52. Transcriptional activator Myb I154F, P10242  -0.914 ± 0.13
53. Transcriptional activator Myb H184T, P10242  -1.07 ± 0.095
54. Transcriptional activator Myb I154N, P10242  -1.14 ± 0.3
